In publication PMC11741422 (bioRxiv, 2025):
Values joined by “and” are separate entries in the source; they are usually repeats but may differ in a detail not shown here. Equal values may be shown once.

Assays:
[1] = target: yeast Vo subunit d (yeast (Saccharomyces cerevisiae), UniProt P32366); test: cryo-EM structure
[2] = target: T1, lipid nanodisc reconstituted yeast V-ATPase Vo proton channel subcomplex (VoND) (Saccharomyces cerevisiae (S288c-type …, UniProt P32563;P25515;P32842;P23968;P32366;Q3E7B6;P0C5R9;P53262)); test: BLI
[3] = target: yeast Vo proteolipid subunit c (Vma3p) (yeast (Saccharomyces cerevisiae), UniProt P25515); test: cryo-EM structure
Sequence of yeast Vo proteolipid subunit c (Vma3p) (P25515 whole entry): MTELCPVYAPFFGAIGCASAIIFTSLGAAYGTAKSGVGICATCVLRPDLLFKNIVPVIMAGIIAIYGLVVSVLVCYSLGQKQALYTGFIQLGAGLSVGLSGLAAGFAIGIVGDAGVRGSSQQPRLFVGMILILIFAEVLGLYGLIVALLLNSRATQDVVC

[4] = target: T1, lipid nanodisc reconstituted yeast …; test: cryo-EM structure

Sequence of yeast Vo subunit d (P32366 whole entry): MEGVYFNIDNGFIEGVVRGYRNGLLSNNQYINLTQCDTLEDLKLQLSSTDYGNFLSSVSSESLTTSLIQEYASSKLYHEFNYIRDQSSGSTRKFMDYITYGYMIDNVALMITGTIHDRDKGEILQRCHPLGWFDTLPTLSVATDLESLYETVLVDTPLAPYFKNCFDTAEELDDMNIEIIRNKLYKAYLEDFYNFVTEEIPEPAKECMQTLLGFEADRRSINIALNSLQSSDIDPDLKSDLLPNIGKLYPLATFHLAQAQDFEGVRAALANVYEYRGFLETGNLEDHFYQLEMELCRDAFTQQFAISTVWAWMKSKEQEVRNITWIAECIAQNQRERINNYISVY

binding result [1] | Kd [2] [nM] | binding result [3] | stoichiometry N [4] | Binder
binds | 0.09 ± 0.023 |  |  | Nanobody N2149 (2WVA149) (VHH) VHH: QVQLQESGGGLVQAGGSLRLSCAVSGSIFSGNAMDWYRQAPGKQRELVASLTSTGSTNYADSVKGRFTITRDNAKNTVYLQMNSLKPEDTAVYYCHALIYRSRLDLAPGNYWGQGTQVTVSS
 | < 0.001 | binds | 8 N27 per VoND | Nanobody N27 (2WVA7) (VHH) VHH: QVQLQESGGGLVEIGGSLRLSCAASGTLFTFNTMAWYRQAPGKQREFIATITSGGNTNYADSVQGRFTISRGNAKNTLYLQMNSLKPEDTAVYYCNARTMTGPFDYWGQGTQVTVSS
 | 0.013 ± 0.001 | binds | 4 N125 per VoND and 3 N125 per VoND | Nanobody N125 (1WVA25) (VHH) VHH: QVQLQESGGGLVQPGGSLRLSCVASGFTFSRYAMTWVRQAPGKGLEWVSDISSGGSSTFYTDSVKGRFTISRDNAKNTLYLQMNSLKPDDTAIYFCAKGVPSYYSDYERRSKRYDSRGQGTQVTVSS
